Experimental findings from PMC9695642, “Conservation of Importin α Function in Apicomplexans: Ivermectin and GW5074 Target Plasmodium falciparum Importin α and Inhibit Parasite Growth in Culture” (International Journal of Molecular Sciences, 2022) are described below.

The target of assay [1] is His-tagged Toxoplasma gondii importin α (Toxoplasma gondii). Briefly: AlphaScreen or HTRF; His-tagged IMPαs (30 nM) titrated with increasing concentrations of biotinylated GST-MmIMPβ1 (legend: 5 nM).
For assay [2], the target named is His-tagged Mus musculus importin α (Mus musculus) (UniProt P52293). The description is as above.
Assay [3] addresses His-tagged GCN5-NLS-GFP (NLS of T. gondii histone acetyltransferase GCN5 fused to GFP) (Toxoplasma gondii). The assay is described as follows: AlphaScreen or HTRF; biotinylated IMPαs titrated against His-tagged NLS-GFPs (30 nM); apparent dissociation constant.
The target of assay [4] is His-tagged TGS1-NLS-GFP (NLS of P. falciparum trimethylguanosine synthase fused to GFP) (Plasmodium falciparum). The description is as above.

In assay [1], “biotinylated GST-MmIMPβ1 (Mus musculus importin β1) (from UniProt P70168 1-876)” gave a Kd of 1.2 nM.

With “biotinylated GST-MmIMPβ1 (Mus musculus importin β1) (from UniProt P70168 1-876) (natural protein)”, in assay [2], the Kd amounted to 2.5 nM.

With “Toxoplasma gondii importin α, biotinylated GST fusion protein (natural protein)”, the Kd turned out to be 5 nM in assay [3] and 1.9 nM in assay [4].

Consider “mammalian IMPα/β1 heterodimer from M. musculus (from UniProt P52293 1-529; P70168 1-876) (complex)”, for which the results for the Kd in assay [3] and in assay [4] were 3.2 nM and 2.5 nM, respectively.
